Data: US20230212288A1 (published 2023)

B1: 309_01_G04 (bispecific antibody)
chain: DIQLTQTPASLAVSLGQRATISCKASQSVDYDGDSYLNWYQQIPGQPPKLLIYDASNLVSGIPPRFSGSGSGTDFTLNIHPVEKVDAATYHCQQSTEDPWTFGGGTKLEIKGGSGGAMAEVQLVESGGGVVQPGRSLRLSCAASGFTVSSNYMSWVRQAPGKGLEWVSAISGSGGSTYYADSVKGRFTTSRDNSKNTLYLQMNSLRAEDTAIYYCAKEDYYGGYFDYWGQGTMVTVSSGGGGSGGGGSGGGASNFMLTQPHSVSESPGKTVTISCTRSSGSIASNYVQWYQQRPGSSPTTVIYEDNQRPSGVPDRFSGSIDSSSNSASLTISGLKTEDEADYYCQSYDSSNQAVFGGGTKVTVLGQPAAAGGGGSQVQLQQSGAELVRPGSSVKISCKASGYAFSSYWMNWVKQRPGQGLEWIGQIWPGDGDTNYNGKFKGKATLTADESSSTAYMQLSSLASEDSAVYFCARRETTTVGRYYYAMDYWGQGTSVTVSSASAAVECPPCPAPPVAGPSVFLFPPKPKDTLMISRTPEVTCVVVDVSHEDPEVQFNWYVDGVEVHNAKTKPREEQFNSTFRVVSVLTVVHQDWLNGKEYKCKVSNKGLPAPIEKTISKTKGQPREPQVYTLPPSREEMTKNQVSLTCLVKGFYPSDIAVEWESNGQPENNYKTTPPMLDSDGSFFLYSKLTVDKSRWQQGNVFSCSVMHEALHNHYTQKSLSLSPGK
B2: 309_01_G12 (bispecific antibody)
chain: DIQLTQTPASLAVSLGQRATISCKASQSVDYDGDSYLNWYQQIPGQPPKLLIYDASNLVSGIPPRFSGSGSGTDFTLNIHPVEKVDAATYHCQQSTEDPWTFGGGTKLEIKGGSGGAMAEVQLVQSGAEVKKPGASVKVSCKASGYTFTGYYMHWVRQAPGQGLEWMGRINPNSGGTNYAQKFQGRVTMTRDTSISTAYMELSRLRSDDAAVYYCARPSRYSNYVDWGQGTTVTVSSGGGGSGGGGSGGGASNFMLTQPHSVSESPGKTVTISCTRSSGSIASNYVQWYQQRPGSAPTTVIYDDDQRPSGVPDRFSGSIDRSSNSASLTISGLKTEDEADYYCQSYDNTNPWVFGGGTKLTVLGQPAAAGGGGSQVQLQQSGAELVRPGSSVKISCKASGYAFSSYWMNWVKQRPGQGLEWIGQIWPGDGDTNYNGKFKGKATLTADESSSTAYMQLSSLASEDSAVYFCARRETTTVGRYYYAMDYWGQGTSVTVSSASAAVECPPCPAPPVAGPSVFLFPPKPKDTLMISRTPEVTCVVVDVSHEDPEVQFNWYVDGVEVHNAKTKPREEQFNSTFRVVSVLTVVHQDWLNGKEYKCKVSNKGLPAPIEKTISKTKGQPREPQVYTLPPSREEMTKNQVSLTCLVKGFYPSDIAVEWESNGQPENNYKTTPPMLDSDGSFFLYSKLTVDKSRWQQGNVFSCSVMHEALHNHYTQKSLSLSPGK
B3: 410_01_C03 (bispecific antibody)
chain: DIQLTQTPASLAVSLGQRATISCKASQSVDYDGDSYLNWYQQIPGQPPKLLIYDASNLVSGIPPRFSGSGSGTDFTLNIHPVEKVDAATYHCQQSTEDPWTFGGGTKLEIKGGSGGAMAQVQLQQWGAGLLKPSETLSLTCAVYGGSFSGYYWSWIRQPPGKGLEWIGEINHSGSTNYNPSLKSRVTISVDTSKNQFSLKLSSVTAADTAVYYCARATRNGAFDYWGQGTLVTVSSGGGGSGGGGSGGGASNFMLTQPHSVSESPGKTVTISCTRSSGRIASNYVQWYQQRPGSSPTTVIYEDNQRPSGVPDRFSGSIDSSSNSASLTISGLKTEDEADYYCQSYDSSNVVFGGGTQLTVLGQPAAAGGGGSQVQLQQSGAELVRPGSSVKISCKASGYAFSSYWMNWVKQRPGQGLEWIGQIWPGDGDTNYNGKFKGKATLTADESSSTAYMQLSSLASEDSAVYFCARRETTTVGRYYYAMDYWGQGTSVTVSSASAAVECPPCPAPPVAGPSVFLFPPKPKDTLMISRTPEVTCVVVDVSHEDPEVQFNWYVDGVEVHNAKTKPREEQFNSTFRVVSVLTVVHQDWLNGKEYKCKVSNKGLPAPIEKTISKTKGQPREPQVYTLPPSREEMTKNQVSLTCLVKGFYPSDIAVEWESNGQPENNYKTTPPMLDSDGSFFLYSKLTVDKSRWQQGNVFSCSVMHEALHNHYTQKSLSLSPGK
B4: 418_01_C05 (bispecific antibody)
chain: DIQLTQTPASLAVSLGQRATISCKASQSVDYDGDSYLNWYQQIPGQPPKLLIYDASNLVSGIPPRFSGSGSGTDFTLNIHPVEKVDAATYHCQQSTEDPWTFGGGTKLEIKGGSGGAMAEVQLVESGGGVVQPGRSLRLSCAASGFTFSSYGMHWVRQAPGKGLEWVSYINSRSSTIYYADSVKGRFTISRDNAKNSLYLQMNSLRDEDTAVYYCAKDKPLSGYAFDIWGQGTTVTVSSGGGGSGGGGSGGGASNFMLTQPHSVSESPGKTVTISCTRSSGSIASNFVQWYQQRPGRAPTIVIFDDDQRPSGVPDRFSGSIDRSSDSASLSISGLKTEDEADYYCQSYATRTQGVVFGGGTKVTVLGQPAAAGGGGSQVQLQQSGAELVRPGSSVKISCKASGYAFSSYWMNWVKQRPGQGLEWIGQIWPGDGDTNYNGKFKGKATLTADESSSTAYMQLSSLASEDSAVYFCARRETTTVGRYYYAMDYWGQGTSVTVSSASAAVECPPCPAPPVAGPSVFLFPPKPKDTLMISRTPEVTCVVVDVSHEDPEVQFNWYVDGVEVHNAKTKPREEQFNSTFRVVSVLTVVHQDWLNGKEYKCKVSNKGLPAPIEKTISKTKGQPREPQVYTLPPSREEMTKNQVSLTCLVKGFYPSDIAVEWESNGQPENNYKTTPPMLDSDGSFFLYSKLTVDKSRWQQGNVFSCSVMHEALHNHYTQKSLSLSPGK
B5: 418_03_E12 (bispecific antibody)
chain: DIQLTQTPASLAVSLGQRATISCKASQSVDYDGDSYLNWYQQIPGQPPKLLIYDASNLVSGIPPRFSGSGSGTDFTLNIHPVEKVDAATYHCQQSTEDPWTFGGGTKLEIKGGSGGAMAQVQLVESGGGVVQPGRSLRLSCAASGFTFSSYGMHWVRQAPGKGLEWVSSISSSSSYIYYADSVKGRFTISRDNAKNSLYLQMNSLRADDTAVYYCARRSFSSVFADYWGQGTLVTVSSGGGGSGGGGSGGGASNFMLTQPHSVSESPGKTVTISCTRSRGSIASNYVQWYQQRPGRAPTIVIFDDDQRPSGVPDRFSGSIDRSSDSASLRISGLKTEDEADYYCQSYATRSQSVVFGGGTKLTVLGQPAAAGGGGSQVQLQQSGAELVRPGSSVKISCKASGYAFSSYWMNWVKQRPGQGLEWIGQIWPGDGDTNYNGKFKGKATLTADESSSTAYMQLSSLASEDSAVYFCARRETTTVGRYYYAMDYWGQGTSVTVSSASAAVECPPCPAPPVAGPSVFLFPPKPKDTLMISRTPEVTCVVVDVSHEDPEVQFNWYVDGVEVHNAKTKPREEQFNSTFRVVSVLTVVHQDWLNGKEYKCKVSNKGLPAPIEKTISKTKGQPREPQVYTLPPSREEMTKNQVSLTCLVKGFYPSDIAVEWESNGQPENNYKTTPPMLDSDGSFFLYSKLTVDKSRWQQGNVFSCSVMHEALHNHYTQKSLSLSPGK
B6: 309_01_A02 (bispecific antibody)
chain: DIQLTQTPASLAVSLGQRATISCKASQSVDYDGDSYLNWYQQIPGQPPKLLIYDASNLVSGIPPRFSGSGSGTDFTLNIHPVEKVDAATYHCQQSTEDPWTFGGGTKLEIKGGSGGAMAEVQLVESGGGLVKPGGSLRLSCAASGFTFSSYSMNWVRQAPGKGLEWVSSISSSSSYIYYADSVKGRFTISRDNAKNSLYLQMNSLRAEDTAVYYCARSSRIQAGMDVWGQGTLVTVSSGGGGSGGGGSGGGASNFMLTQPHSVSESPGKTVTISCTRSSGTIASTYVQWYQQRPGSSPTTVIYEDNQRPSGVPDRFSGSIDSSSNSASLTISGLKTEDAADYFCQSYDSNNRVFGGGTKVTVLGQPAAAGGGGSQVQLQQSGAELVRPGSSVKISCKASGYAFSSYWMNWVKQRPGQGLEWIGQIWPGDGDTNYNGKFKGKATLTADESSSTAYMQLSSLASEDSAVYFCARRETTTVGRYYYAMDYWGQGTSVTVSSASAAVECPPCPAPPVAGPSVFLFPPKPKDTLMISRTPEVTCVVVDVSHEDPEVQFNWYVDGVEVHNAKTKPREEQFNSTFRVVSVLTVVHQDWLNGKEYKCKVSNKGLPAPIEKTISKTKGQPREPQVYTLPPSREEMTKNQVSLTCLVKGFYPSDIAVEWESNGQPENNYKTTPPMLDSDGSFFLYSKLTVDKSRWQQGNVFSCSVMHEALHNHYTQKSLSLSPGK
B7: 410_01_C09 (bispecific antibody)
chain: DIQLTQTPASLAVSLGQRATISCKASQSVDYDGDSYLNWYQQIPGQPPKLLIYDASNLVSGIPPRFSGSGSGTDFTLNIHPVEKVDAATYHCQQSTEDPWTFGGGTKLEIKGGSGGAMAEVQLVQSGAEVKKPGASVKVSCKASGYTFTSYYMYWVRQAPGQGLEWMGRINPNSGGTNYAQKFQGRVTMTRDTSISTAYMELSRLRSDDTAVYYCARPSRYSNYVDWGQGTLVTVSSGGGGSGGGGSGGGASNFMLTQPHSVSESPGKTVTISCTRSSGSIASNYVQWYQQRPGSSPTTVIYEDNQRPSGVPDRFSGSIDSSSNSASLTISGLKTEDEADYYCQSYDSRWIWVSGGGTKVTVLGQPAAAGGGGSQVQLQQSGAELVRPGSSVKISCKASGYAFSSYWMNWVKQRPGQGLEWIGQIWPGDGDTNYNGKFKGKATLTADESSSTAYMQLSSLASEDSAVYFCARRETTTVGRYYYAMDYWGQGTSVTVSSASAAVECPPCPAPPVAGPSVFLFPPKPKDTLMISRTPEVTCVVVDVSHEDPEVQFNWYVDGVEVHNAKTKPREEQFNSTFRVVSVLTVVHQDWLNGKEYKCKVSNKGLPAPIEKTISKTKGQPREPQVYTLPPSREEMTKNQVSLTCLVKGFYPSDIAVEWESNGQPENNYKTTPPMLDSDGSFFLYSKLTVDKSRWQQGNVFSCSVMHEALHNHYTQKSLSLSPGK
B8: 418_03_H01 (bispecific antibody)
chain: DIQLTQTPASLAVSLGQRATISCKASQSVDYDGDSYLNWYQQIPGQPPKLLIYDASNLVSGIPPRFSGSGSGTDFTLNIHPVEKVDAATYHCQQSTEDPWTFGGGTKLEIKGGSGGAMAQVQLQQWGAGLLKPSETLSLTCAVYGGSFSRYYWSWIRQSPGKGLEWIGEIKHRGRTNYNPSLKSRVTMSVDTSKNQFSLQLRSVTAADTAVYYCARVYSSGWFSYWGQGTLVTVSSGGGGSGGGGSGGGASNFMLTQPHSVSESPGKTVTISCTRSSGSIARNYVQWYQQRPGSAPTTVIYEDNQRPSGVPDRFSGSIDSSSNSASLTISGLKTEDEADYYCQSYDGSNWVFGGGTKVTVLGQPAAAGGGGSQVQLQQSGAELVRPGSSVKISCKASGYAFSSYWMNWVKQRPGQGLEWIGQIWPGDGDTNYNGKFKGKATLTADESSSTAYMQLSSLASEDSAVYFCARRETTTVGRYYYAMDYWGQGTSVTVSSASAAVECPPCPAPPVAGPSVFLFPPKPKDTLMISRTPEVTCVVVDVSHEDPEVQFNWYVDGVEVHNAKTKPREEQFNSTFRVVSVLTVVHQDWLNGKEYKCKVSNKGLPAPIEKTISKTKGQPREPQVYTLPPSREEMTKNQVSLTCLVKGFYPSDIAVEWESNGQPENNYKTTPPMLDSDGSFFLYSKLTVDKSRWQQGNVFSCSVMHEALHNHYTQKSLSLSPGK

Target: human CD3 receptor complex (human, UniProt P07766 23-207; P09693 23-182; P04234 22-171)
Experiment: cell-based or functional assay

human CD3 receptor complex, sequence (P07766 23-207, chain 1 of 3): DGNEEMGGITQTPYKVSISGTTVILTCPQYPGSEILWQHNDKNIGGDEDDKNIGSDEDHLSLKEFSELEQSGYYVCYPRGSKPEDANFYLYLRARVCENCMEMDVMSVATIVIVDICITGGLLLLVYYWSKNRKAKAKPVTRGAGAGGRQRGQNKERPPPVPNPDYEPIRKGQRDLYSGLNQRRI
human CD3 receptor complex, sequence (P09693 23-182, chain 2 of 3): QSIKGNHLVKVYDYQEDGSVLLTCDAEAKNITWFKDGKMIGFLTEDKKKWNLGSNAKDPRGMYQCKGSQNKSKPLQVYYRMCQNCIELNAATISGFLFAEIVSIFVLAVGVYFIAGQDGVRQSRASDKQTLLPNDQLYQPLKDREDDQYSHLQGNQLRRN
human CD3 receptor complex, sequence (P04234 22-171, chain 3 of 3): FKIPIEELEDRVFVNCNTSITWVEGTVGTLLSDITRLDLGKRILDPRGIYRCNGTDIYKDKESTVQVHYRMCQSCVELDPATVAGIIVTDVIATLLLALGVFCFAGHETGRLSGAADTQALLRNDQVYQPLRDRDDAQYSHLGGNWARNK

| Activity (EC50 for activation of Jurkat line cells, pM) | Binder |
| --- | --- |
| 2 pM | B1 |
| 13.8 pM | B2 |
| 3 pM | B3 |
| 1.5 pM | B4 |
| 1 pM | B5 |
| 7.9 pM | B6 |
| 2.2 pM | B7 |
| 4.3 pM | B8 |
